Publication PMC12205877

T1: TaBZR2 (Triticum aestivum (ZM1860), UniProt A0A3B6FJ07 1-354)
T1 sequence: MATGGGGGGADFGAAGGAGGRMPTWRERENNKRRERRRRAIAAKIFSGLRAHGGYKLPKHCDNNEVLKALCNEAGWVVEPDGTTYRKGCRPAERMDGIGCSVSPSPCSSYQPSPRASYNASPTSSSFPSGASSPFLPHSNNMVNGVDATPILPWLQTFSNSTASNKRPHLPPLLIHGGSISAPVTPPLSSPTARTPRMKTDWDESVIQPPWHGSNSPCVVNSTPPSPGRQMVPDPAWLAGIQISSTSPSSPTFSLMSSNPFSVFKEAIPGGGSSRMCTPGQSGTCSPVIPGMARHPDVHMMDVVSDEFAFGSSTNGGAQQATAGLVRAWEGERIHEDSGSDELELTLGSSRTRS

B1: TaHSFb2a promoter mutated E-box probe (dsDNA)
DNA 1: CCGTTTCTAGAAACCTCGCTGTACAGCCGACTAGAAAGGATCG
DNA 2: CGATCCTTTCTAGTCGGCTGTACAGCGAGGTTTCTAGAAACGG
B2: TaHSFb2a promoter E-box probe (WT) (dsDNA)
DNA 1: CCGTTTCTAGAAACCTCGCCACGTGGCCGACTAGAAAGGATCG
DNA 2: CGATCCTTTCTAGTCGGCCACGTGGCGAGGTTTCTAGAAACGG
B3: TaHSP21 promoter mutated E-box probe (dsDNA)
DNA 1: AAGCATGCGCATGTTGAAATGGACACAAAATGATGGACAAGGGC
DNA 2: GCCCTTGTCCATCATTTTGTGTCCATTTCAACATGCGCATGCTT
B4: TaHSP21 promoter E-box probe (WT) (dsDNA)
DNA 1: AAGCACATATGTGTTGAAACAAGTGCAAAATGACAAGTGAGGGC
DNA 2: GCCCTCACTTGTCATTTTGCACTTGTTTCAACACATATGTGCTT

Assays:
TaBZR2 [1] = target: T1, TaBZR2; assay: competition
TaBZR2 [2] = target: T1, TaBZR2; assay: EMSA
TaBZR2 [3] = target: T1, TaBZR2; assay: competition; remark: listed apart in the source

Row | Binder | binding result (TaBZR2 [2]) | other results
1 | B1 |  | binding result (TaBZR2 [1]): no binding
2 | B2 | binds | 
3 | B3 |  | binding result (TaBZR2 [3]): no binding
4 | B4 | binds | 
